Test results as given in patent US8981056.

Biological target: Aspergillus terreus LOVF Polyketide Synthase

B1: LovD G7 mutant (protein)
chain: MGSIIDAAAAAGPVVLMETAFRKAVESRQIPGAVIMARDASGNLNYTRCFGARTVRRDENNQLPPLQVDTPCRLASATKLLTTIMVLQCMERGLVDLDETVDRLLPDLSAMPVLEGFDDAGNARLRERRGKITLRHLLTHTSGLSYVFLHPLLREYMAQGYLQSAEKFGIQSRLAPPAVNDPGAEWIYGTNLDWAGKLVERATGLDLEQYLQENICAPLGITDMTFKLQQRPDMLARRADQTHRNSADGRLRYDDSVYFRADGEECFGGQGVFSSPGSYMKVLHSLLKRDGLLLQPQTVDLMFQPALEPRLEEQMNQHMDASPHINYGGPMPMFLRRSFGLGGIIALEDLDGENWRRKGSLTFGGGPNIVWQIDPKAGLCTLAFFQLEPWNDPVCRDLTRTFEHAIYAQYQQG
  activities towards LovF (kinetic assay for LVA synthesis with LovF as acyl donor): The G7 mutant exhibited a 27-fold decrease in activities towards LovF compared to the G0 parent
